According to the RNAGym collection of RNA variant scans (doi:10.1073/pnas.2313332121):
Fewer inactive variants are shown than the library holds.

B1: TPR 5TU (parent)
chain: GGAUCUUCUCGAUCUAACAAAAAAGACAAAUCUGCCACAAAGCUUGAGAGCAUCUUCGGAUGCAGAGGCGGCAGCCUUCGGUGGCGCGAUAGCGCCAACGUUCUCAACUAUGACACGCAAAACGCGUGCUCCGUUGAAUGGAGUUUAUCAUG

Variants of: B1
Assay: polymerase ribozyme fitness, log enrichment relative to wild type (log ratio); higher = more active; in vitro selection for triplet polymerase activity
Outline: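 Mutant libraries of each subunit of a heterodimeric triplet polymerase ribozyme were built by PCR and transcribed. Each library went through one round of in vitro selection in triplicate: annealing with biotinylated primer, partner subunit and triplets, frozen incubation at −7 °C, gel excision of extended constructs, streptavidin-bead capture and RT-PCR. Input and output libraries were Illumina-sequenced; only genotypes with ≥10 input reads and ≥1 read per output were kept. Fitness is log2(genotype enrichment/wild-type enrichment), using inverse-variance-weighted replicate averages.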

Polymerase ribozyme fitness (log ratio), -4:
U9C A21C C57A C93A A115C
U9C A52C U61A C96G C103G A142C

Polymerase ribozyme fitness (log ratio), -4.08:
C8G G48C

Polymerase ribozyme fitness (log ratio), -2.87:
C8U G84A

Polymerase ribozyme fitness (log ratio), ≤ -4.2:
U9A A20U C36A A52C A113U G124C
U9A G59A C87A
U9C C57U G83A A119U G124C
C10A A24C C51U G141U
U9G A89U C95A
C8G G70C G80A A91U U104C A120U
U9G U90C U148G
C8G G34A G124A A137C
C8U U13C C14A A20U G50C C63A G71A C79G G92U A119C G141A
C8G C10A C93U A106U A107U C108U U148G
U9A A12U C114A C125A
C8G G11A A19C G50A C69A G70A C93U
C8G U31C C32G G48A A91U A122C G133A
U9G U33G G34U G92A C105G C132U U139C
C8G G80C
U9G C14G A24G U55A U139A
C8U C63U C72U C123U G126U
U9G A17C A22U A29G G50A G68A
C10A A19G C57A G59A U82A C85U G141C
C10A A22C A73U C79G C87A A113G
C8U A21U A28C A52U G94U C95G A97C A122U G126U G136A
U9A A16C C85A C87A
U9G C75U A150G
U9C U82A G92U C116U U134G
C8U A17G C36A G50C A115G
C8G G11U G50A C116G U146G
C10A A20G C38A U55A A60C
C8U A20C G50C G71A C96A A98G C114U U148C
C8G C10A A40C G67A C75A C87A
C8U A16C A19U G59U A60G C93U
U9C C27G U44G C85U C93G
C8U U31A C32G C54U G83U U104A A107C
C8U C87G G100C U139C C149G
U9A A12U C32U A37U G92C
U9G C27G A28G A41C C57U U82G G92C G140U
U9C A119U
U9A U13G A29C U82G G84U A91G G94U G128C G133A A138U
C8U A22C A39G C85G A106G A119G
U9G A16U C32A C85G U135C G152U
U9C G11U A16G C51G C93G G112U
U9G C27U A41U G46C U90G C96G A119C A122C
U9A A30C A40G A41C C57U C95G
U9G C32A A40G A52G
C8G A47C G81C G84C G86U
U9A U53C A64U C87A G136U A150G
C8U A22U C51U G62A C93G C103A C105G
C8U C63U G80A G84C C96U
C8G U56G A91G
U9C G11A A23U C36U C51A G92C G117C
U9A U78C G84U C99G A113U A115C G117U U135C U144A U148G
U9G C75G C76A C85G
U9G A24U C35U A60C G71A G128A G143U A150G
U9A C27U C72U
C8U U31G A40G G42U A52C C79G G84A C103A G133A U148G
U9A A28U A66G C79G C93U
U9G G86U A97U C108G
C8G C131U U144G
C8U G11A G86A U109C C123A C132G
C8G A41U A49G C95U A147U
U9C C96U A110G
C10A A20U A21C A49C C51U C79U A110G
U9C U33C C87A A122C
U9G A23U A26G A28G U61A G80A A120U G141U
C8U C38G A60C A107G G141C U151C
U9G C35U G48U U56G A60C G74A C96G U104G A107U
U9A A28C A64C C72U U78G
C10A A39C C54U C76U C87A
C8U C10U C32G C35G C95U G136A
U9C A28G C38A C54G G88C C103A
U9C G88C A137C
C8U U61A C95A U146G
C8U A20G A24C A40C G50C G71C A89C C93U
U9C A26U C54U G92A
U9G A22G U31G A41G A91U C93U U135G
U9C G58A A98U
C8U C51A A60U C87U
C8U A26G U56A C76G C105U A106C C123U
U9A A40U G59U U134A
U9G G11U U44A G50C C87A C105G
U9C A19G A30G C35A U56A C87G G117U U148C
U9A A22G C36A A39C G65U C87U C95A G126A G136A U139C
U9G G65A G81U C95U
U9C A52C G67A G74U G86U C93U A115G
U9G U13C A24U A49C C51G A52C A73C U104A C108G
U9A A60U U61C C72U C93U
C8U U15G U44A C54U G84A U101G A110U A115G G133U
C8U A20C G50A U82G C93U C95U A142G
U9C C36A U45A A47C A49U A52G U55G G68U G80U G94U
C10A A12U A28C A29C A107G
C8U U9A C10U A17G A66G A91C
U9A G48A G80C C87G A107U A113U
C8G U78A
C8G A41C C93G C103A A120U A142U
C10A A39U U55A C57A U90G G92A
C8G U31A U33G U53G U55G G94A G126C
C8G U15G A17G C18U A20C C32G A73G C93U C125U
U9G A39G U53A G83C C87A C108G U151A
U9A A24U U55A G68U U82C G94A A110U G136A
U9G U56G G84U C87A U90G U109G U130C U139A
C8U A17G A39G G84U C116A C118G U139C
C10A A52C C63U A91G A113U
C10A A22U A39U C85U G126A
U9A A21G A28C U45A A52C C87A G128A G136U
U9A A47G C69A G94A C96G U101C A121C A138G
U9G C38U U44C G46A U56A C79G C96A A142G
U9A C27G A73U C93U U102G G117C
U9G G42C G58C C95U
C8U C32A G58C C93G G94U C95U G117U A138U
C8U G84U G117U G140C U146G
C8G U31A A49C U53A G84A A119U A121C A137U
C8G G83A C99U
C8U A20G A26U U56A C96U C105U G128C
U9C U33G A39U U55A C57U A91C C95A G140U
U9G G59U G68C G84U C105A G124A G133C A142C
C10A A40U G67U G81C C149G
C8U U13C C27A G50A U61A G62U C93U A106C A110G C125G
U9C U15G A17U A21U C27G U56A G68A
C8U C38U C69A G83A A91C C118U
C8U G42C C85A
U9A C27A A40U
C8U C14G C32A C36G G83A G117C
C8U A19G C79U C85G
C8U A39U G48U U134A
C8G G81C G86A C132A
U9G C14U A29C C35A C87U G92A G94U A98U A137U
C10A A17C C35U G59A A122U U146A
U9G U53G C87U A113U C116A G140U
C10A A40C U56A C108U G143C
U9G U15A A30U U33G G42C U101A C105G A110U C118U A119G U139A A147C A150G
U9C U31C A41C G48C A52U C93U C95A G140A
U9C A37C A40G U53A C75U U77A A119U
U9G C27U U55A C85G C95G C123G G140U
U9A U31G C36A C93G C103G G140C
C8U A22U A40U A47C
C8U A73G G83A
U9A C35U A121U G136A
C8G G48A C54U C69G C85G A91C
U9C A28G C57A C96G U151C

Polymerase ribozyme fitness (log ratio), -2.39:
C8U

Polymerase ribozyme fitness (log ratio), -4.16:
U9C A21U A28C G50C G94U U102C

Polymerase ribozyme fitness (log ratio), -4.06:
U9A G83A
C8U U15A A41U C85A G126A

Polymerase ribozyme fitness (log ratio), -3.57:
C8G G92U

Polymerase ribozyme fitness (log ratio), -4.03:
U9A C10U U53A A66U C87A A119U G126A G141A

Polymerase ribozyme fitness (log ratio), -2.75:
C8U C85A

Polymerase ribozyme fitness (log ratio), -2.82:
U9C A97G

Polymerase ribozyme fitness (log ratio), -3.92:
C8G A91U A142U

Polymerase ribozyme fitness (log ratio), -4.09:
U9G A19U

Polymerase ribozyme fitness (log ratio), -3.25:
C8U A142C

Polymerase ribozyme fitness (log ratio), -4.07:
C8G C96A

Polymerase ribozyme fitness (log ratio), -4.11:
U9G A73G

Polymerase ribozyme fitness (log ratio), -2.58:
U9G G141U

Polymerase ribozyme fitness (log ratio), -3.69:
U9A G94A

Polymerase ribozyme fitness (log ratio), -4.02:
U9G C14A C85U

Polymerase ribozyme fitness (log ratio), -3.41:
U9G C85U

Polymerase ribozyme fitness (log ratio), -2.96:
U9A C87U

Polymerase ribozyme fitness (log ratio), -3.81:
U9A C93A A142C

Polymerase ribozyme fitness (log ratio), -3.1:
C8G G58A

Polymerase ribozyme fitness (log ratio), -3.19:
C8U C85U

Polymerase ribozyme fitness (log ratio), -3.66:
C8G C54U

Polymerase ribozyme fitness (log ratio), -3.42:
C8U A40U

Polymerase ribozyme fitness (log ratio), -3.64:
C8G G94A

Polymerase ribozyme fitness (log ratio), -2.08:
C8U C116A
